Data from patent US20140030270A1 (Amgen, published 2014).

Assays:
human PCSK9 (wild-type) = human PCSK9 (wild-type) (human, UniProt Q8NBP7 31-692, biotinylated in the ELISA formats (sites not given); untagged and unlabelled in Biacore/KinExA); assay: cell-based or functional assay
human PCSK9 D374Y mutant = human PCSK9 D374Y mutant (human, UniProt Q8NBP7 31-692, biotinylated in the LDLR binding ELISAs (sites not given)); assay: cell-based or functional assay

B1: 11F1 anti-PCSK9 antibody (antibody, V domains shown)
VH: EVQLVESGGGLVQPGGSLRLSCAASGFTFSNYWMSWVRQAPGKGLEWVASIKQDGSEKYYVDSVKGRFAISRDNAKNSLFLQMNSLRAEDTAVYYCARDLVLMVYDIDYYYYGMDVWGQGTTVTVSS
VL: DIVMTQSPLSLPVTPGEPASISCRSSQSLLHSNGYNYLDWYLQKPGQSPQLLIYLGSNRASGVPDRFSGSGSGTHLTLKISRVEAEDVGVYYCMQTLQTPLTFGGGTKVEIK
In the case of B1, the “EC50, block of WT PCSK9-mediated decrease in LDL uptake in HepG2 cells (BODIPY-LDL)” value (human PCSK9 (wild-type)) is reported as 124 nM and the “EC50, block of D374Y PCSK9-mediated decrease of LDL uptake in HepG2 cells (BODIPY-LDL)” value (human PCSK9 D374Y mutant) is reported as 35.3 nM.
